The values below come from patent US20240132578A1.

Common to all, as to assay: cell-based or functional assay
Experiment [1] has as its target HIV-1 Env of isolate MG RM-A-006 (pseudovirus) (HIV-1).
The target of experiment [2] is HIV-1 Env of isolate 98CN006 (HIV-1).
Experiment [3] has as its target HIV-1 Env of isolate MGRM-AE-001 (pseudovirus) (HIV-1).
Experiment [4] concerns the target HIV-1 Env of isolate 92UG046 (HIV-1).
Experiment [5] has as its target HIV-1 Env of isolate MGRM-G-013 (subtype G) (HIV-1).
For experiment [6], the target named is HIV-1 Env of pseudovirus isolate APV-6 (clade B) (HIV-1).
The target of experiment [7] is HIV-1 Env of isolate MGRM-G-017 (subtype G) (HIV-1).
In experiment [8] the target is HIV-1 Env of isolate MGRM-D-008 (HIV-1).
In experiment [9] the target is HIV-1 JR-CSF Env W395A (HIV-1 (isolate JR-CSF)) (UniProt P20871).
For experiment [10], the target named is HIV-1 Env of isolate MGRM-F1-010 (HIV-1).
The target of experiment [11] is HIV-1 Env of isolate MGRM-A-002 (pseudovirus) (HIV-1).
The target of experiment [12] is HIV-1 Env of isolate MGRM-A-011 (subtype A) (HIV-1).
In experiment [13] the target is HIV-1 Env of isolate MGRM-AE-003 (subtype AE) (HIV-1).
Experiment [14] addresses HIV-1 JR-CSF Env N392Q (HIV-1 (isolate JR-CSF)) (UniProt P20871).
Experiment [15] deals with HIV-1 Env of isolate CMU02 (subtype AE) (HIV-1).
Experiment [16] deals with HIV-1 Env of isolate MGRM-F1-020 (HIV-1).
For experiment [17], the target named is HIV-1 Env of isolate MGRM-AG-012 (subtype AG) (HIV-1).
Experiment [18] deals with HIV-1 JR-CSF Env F468A (HIV-1 (isolate JR-CSF)) (UniProt P20871).
Experiment [19] deals with HIV-1 JR-CSF Env D417A (HIV-1 (isolate JR-CSF)) (UniProt P20871).
Experiment [20] addresses HIV-1 Env of isolate MGRM-F1-015 (HIV-1).
In experiment [21] the target is aMLV envelope protein on pseudovirus (negative control).
The target of experiment [22] is HIV-1 envelope glycoprotein (Env) of isolate MG RM-A-001, subtype A (HIV-1).
In experiment [23] the target is HIV-1 envelope glycoprotein (Env) of isolate 93UG077, subtype A (HIV-1).
The target of experiment [24] is HIV-1 envelope glycoprotein (Env) of isolate APV_17, on pseudovirus (HIV-1).
In experiment [25] the target is HIV-1 envelope glycoprotein (Env) of isolate CMU02, subtype AE (HIV-1).
Experiment [26] addresses HIV-1 envelope glycoprotein (Env) of isolate MG RM-A-014, subtype A (HIV-1).
Experiment [27] deals with HIV-1 envelope glycoprotein (Env) of isolate SC422661.8, on pseudovirus (HIV-1).
Experiment [28] addresses HIV-1 envelope glycoprotein (Env) of isolate MG RM-A-011, subtype A (HIV-1).
The target in experiment [29] is HIV-1 envelope glycoprotein (Env) of isolate MG RM-A-006, subtype A (HIV-1).
The target of experiment [30] is HIV-1 envelope glycoprotein (Env) of isolate MG RM-A-013, subtype A (HIV-1).
Experiment [31] deals with HIV-1 Env of isolate MGRM-AG-009 (pseudovirus) (HIV-1).
The target in experiment [32] is HIV-1 envelope glycoprotein (Env) of isolate VLGCA1, subtype A (HIV-1).

A value given as a limit tells only on which side of the number the result lay.

Take 4995_P16 (PGT-145) (antibody): the IC50 (µg/mL), single-round pseudovirus neutralization is over 50 µg/mL in experiment [1] and 20.9 µg/mL in experiment [3]. Further, the IC50 (µg/mL), pseudovirus neutralization in [2] is over 50 µg/mL; in experiment [4], over 50 µg/mL; in experiment [5], over 50 µg/mL; in experiment [7], 0.205 µg/mL; in experiment [8], 0.025 µg/mL. The substance further registered an IC50, pseudovirus neutralization in experiment [6] of 0.104 µg/mL.

4980_N08 (PGT-143) (antibody): the IC50 (µg/mL), single-round pseudovirus neutralization in experiment [1] and in [3] was over 50 µg/mL each time. Besides, the IC50 (µg/mL), pseudovirus neutralization was over 50 µg/mL in experiment [2]; over 50 µg/mL in [4]; over 50 µg/mL in experiment [5]; 0.107 µg/mL in experiment [7]; 0.153 µg/mL in [8]. The substance further showed an IC50, pseudovirus neutralization in experiment [6] of 14 µg/mL.

Consider 5114_A19 (PGT-128) (antibody), for which the Fold IC50 increase relative to wild-type (pseudovirus neutralization) in experiment [9] is 0.8 fold; in experiment [14] it was 0.9 fold; in experiment [18], 0.5 fold; in [19], 0.5 fold. The IC50 (µg/mL), pseudovirus neutralization in experiment [10] was 16.7 µg/mL; in experiment [11], 0.149 µg/mL; in [16], 0.355 µg/mL; in experiment [20], over 50 µg/mL. Moreover, the IC50, pseudovirus neutralization in experiment [12] was over 50 µg/mL; in [13] it was 0.18 µg/mL; in experiment [15] it was over 50 µg/mL; in experiment [17], over 50 µg/mL.

4970_K22 (PGT-144) (antibody): the IC50 (µg/mL), single-round pseudovirus neutralization in experiment [1] and in experiment [3] was over 50 µg/mL throughout. Also, the IC50 (µg/mL), pseudovirus neutralization is over 50 µg/mL in experiment [2]; over 50 µg/mL in [4]; over 50 µg/mL in [5]; 9.97 µg/mL in experiment [7]; 9.85 µg/mL in [8]. In experiment [6], the IC50, pseudovirus neutralization is over 50 µg/mL.

With 5141_B17 (PGT-126) (antibody), the Fold IC50 increase relative to wild-type (pseudovirus neutralization) was found to be 0.6 fold in [9], 1.6 fold in experiment [14], 0.7 fold in [18] and 1 fold in experiment [19]. The substance further returned an IC50 (ug/mL), pseudovirus neutralization in [21] of over 10 µg/mL. Moreover, the IC50, pseudovirus neutralization in experiment [22] is over 50 µg/mL; in experiment [23], 0.02 µg/mL; in [24] it was 0.353 µg/mL; in experiment [25] it was over 50 µg/mL; in [26], 0.01 µg/mL; in [27], 0.119 µg/mL. The IC50, pseudovirus neutralization is over 50 µg/mL in experiment [28], over 50 µg/mL in experiment [29], 0.006 µg/mL in experiment [30] and over 50 µg/mL in experiment [32]. Moreover, the IC50 (µg/mL), pseudovirus neutralization in experiment [31] is 0.03 µg/mL.

As for 5136_H01 (PGT-131) (antibody), the Fold IC50 increase relative to wild-type (pseudovirus neutralization) was found to be 0.5 fold in experiment [9], 0.4 fold in experiment [14], 1.6 fold in [18] and 1 fold in experiment [19]. Also, the IC50 (µg/mL), pseudovirus neutralization in experiment [10], in experiment [11], in experiment [16] and in experiment [20] was over 50 µg/mL each time. Besides, the IC50, pseudovirus neutralization in [12] was over 50 µg/mL; in experiment [13], 1.41 µg/mL; in experiment [15], over 50 µg/mL; in experiment [17] it was over 50 µg/mL.

For 5345_I01 (PGT-137) (antibody), the IC50 (µg/mL), pseudovirus neutralization in experiment [10] is over 50 µg/mL; in experiment [11] it was over 50 µg/mL; in experiment [16] it was 1.93 µg/mL; in experiment [20], over 50 µg/mL. The IC50, pseudovirus neutralization in experiment [12], in experiment [13], in [15] and in experiment [17] was over 50 µg/mL in each case.

5329_C19 (PGT-136) (antibody) yielded an IC50 (ug/mL), pseudovirus neutralization in [21] of over 10 µg/mL. For the same substance, the IC50 (µg/mL), pseudovirus neutralization in experiment [10] was over 50 µg/mL; in experiment [11], over 50 µg/mL; in experiment [16], 9.31 µg/mL; in experiment [20] it was over 50 µg/mL. The IC50, pseudovirus neutralization in experiment [12], in experiment [13], in experiment [15] and in experiment [17] was over 50 µg/mL each time.

With 5147_N06 (PGT-130) (antibody), the Fold IC50 increase relative to wild-type (pseudovirus neutralization) in experiment [9] was found to be 0.6 fold; in [14], 1.2 fold; in experiment [18], 0.4 fold; in experiment [19] it was 1 fold. Moreover, the IC50 (ug/mL), pseudovirus neutralization in experiment [21] is over 10 µg/mL. Moreover, the IC50 (µg/mL), pseudovirus neutralization was over 50 µg/mL in experiment [10], 0.01 µg/mL in experiment [11], 9.73 µg/mL in experiment [16] and over 50 µg/mL in experiment [20]. Also, the IC50, pseudovirus neutralization in [12] was over 50 µg/mL; in experiment [13], 0.337 µg/mL; in experiment [15] it was over 50 µg/mL; in experiment [17] it was over 50 µg/mL.

Consider 4995_E20 (PGT-142) (antibody), for which the IC50 (µg/mL), single-round pseudovirus neutralization in experiment [1] and in [3] was over 50 µg/mL throughout. The IC50 (µg/mL), pseudovirus neutralization was over 50 µg/mL in [2]; over 50 µg/mL in experiment [4]; over 50 µg/mL in experiment [5]; 0.125 µg/mL in experiment [7]; 0.174 µg/mL in experiment [8]. In addition, the IC50, pseudovirus neutralization in [6] amounted to 4.72 µg/mL.

Consider 5343_B08 (PGT-135) (antibody), for which the Fold IC50 increase relative to wild-type (pseudovirus neutralization) in [9] was 0.6 fold; in [14], over 250 fold; in experiment [18], 1.1 fold; in experiment [19], 5 fold. In [21], this substance displayed an IC50 (ug/mL), pseudovirus neutralization of over 10 µg/mL. Moreover, the IC50 (µg/mL), pseudovirus neutralization was over 50 µg/mL in experiment [10], over 50 µg/mL in experiment [11], 0.168 µg/mL in experiment [16] and 1.11 µg/mL in experiment [20]. For the same substance, the IC50, pseudovirus neutralization in experiment [12] is over 50 µg/mL; in experiment [13] it was over 50 µg/mL; in [15] it was over 50 µg/mL; in experiment [17] it was 41.9 µg/mL.

Regarding 5123_A06 (PGT-125) (antibody), the Fold IC50 increase relative to wild-type (pseudovirus neutralization) came out at 0.9 fold in experiment [9], 1.2 fold in [14], 1 fold in experiment [18] and 0.5 fold in experiment [19]. The substance further displayed an IC50 (ug/mL), pseudovirus neutralization in experiment [21] of over 10 µg/mL. Besides, the IC50, pseudovirus neutralization is 12.4 µg/mL in [22]; 0.012 µg/mL in experiment [23]; 8.06 µg/mL in experiment [24]; over 50 µg/mL in experiment [25]; 13.9 µg/mL in [26]; 30.1 µg/mL in experiment [27]. Moreover, the IC50, pseudovirus neutralization is over 50 µg/mL in experiment [28], over 50 µg/mL in experiment [29], 0.014 µg/mL in [30] and 0.078 µg/mL in experiment [32]. In experiment [31], this substance yielded an IC50 (µg/mL), pseudovirus neutralization of 0.026 µg/mL.
